Laboratory results taken from the RNAGym collection of RNA variant scans (doi:10.1093/nar/gkz1192).

B1: CPEB3 Ribozyme (parent)
chain: UAACAGGGGGCCACAGCAGAAGCGUUCACGUCGCAGCCCCUGUCAGAUUCUGGUGAAUCUGCGAAUUCUGCUGUAUAUCUC

Variants of: B1
Assay: self-cleavage, relative activity (ratio to wild type); higher = more cleavage; in vitro, sequencing
In short: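 Libraries of CPEB3 self-cleaving ribozyme mutants came from rounds of error-prone PCR and carried barcodes, which DNA sequencing matched to variants. In vitro transcription used T7 RNA polymerase at 37°C for 5 hours, with a further 15 min in DNase I before EDTA stopped the reaction; the ribozymes cleaved during both steps. The RNA was reverse transcribed with template switching and sequenced on Illumina. Relative activity is the cleaved/total read fraction of a variant divided by that of the unmutated ribozyme, averaged over three batches with at least 5 reads.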

| Variant | self-cleavage |
| --- | --- |
| A18U A21G | 0.25 |
| A18U A21C | 0.2 |
| A18U U43C | 0.26 |
| A18U U43A | 0.64 |
| A18U U43G | 0.14 |
| A18U C44G | 0.24 |
| A18U C44A | 0.15 |
| A18U C44U | 0.2 |
| G19A A45G | 0.25 |
| G19A A45U | 0.07 |
| G19A A77G | 0.3 |
| A18U A45G | 0.32 |
| A18U A45C | 0.16 |
| A18U A45U | 0.25 |
| A18U U69G | 1.14 |
| A18U U69C | 0.47 |
| A18U U69A | 1.19 |
| A18U C50A | 0.4 |
| A18U C50U | 0.42 |
| A18U U76G | 0.3 |
| A18U U76C | 0.39 |
| A18U U76A | 0.36 |
| A18U A57G | 0.37 |
| A18U A57U | 0.33 |

| Variant | self-cleavage |
| --- | --- |
| A18G G19U | 0.32 |
| A18G G19C | 0.2 |
| A18U G63A | 0.48 |
| A18U G63U | 0.57 |
| A18U G63C | 0.37 |
| A18G U48C | 0.31 |
| A18G U48A | 0.16 |
| A18U C79A | 0.75 |
| A18U C79U | 0.26 |
| A18U C62A | 0.28 |
| A18U C62G | 0.27 |
| A18U C62U | 0.33 |
| A18G G55U | 0.7 |
| A18G G55A | 0.47 |
| A18G G61A | 0.3 |
| A18G U66C | 0.29 |
| A18G U66A | 0.31 |
| A18U U58A | 0.19 |
| A18U U58G | 0.03 |
| A18U U58C | 0.32 |
| A18U G61U | 0.28 |
| A18U G61C | 0.14 |
| A18U G61A | 0.3 |
| A18G C44A | 0.28 |

| Variant | self-cleavage |
| --- | --- |
| A18G C44U | 0.2 |
| A18G C44G | 0.16 |
| A18G U78C | 0.82 |
| A18G U78G | 0.53 |
| A18G U78A | 0.82 |
| A18G C37A | 0.32 |
| A18G G70A | 0.37 |
| A18G G70C | 0.13 |
| G19A A56G | 0.2 |
| G19A A56U | 0.12 |
| A18G A64G | 0.43 |
| A18G A64U | 0.29 |
| A18C U54A | 0.37 |
| A18C U54C | 0.32 |
| A18G C68A | 0.21 |
| A18G C68U | 0.52 |
| A18G G30A | 0.2 |
| A18G A57G | 0.55 |
| A18G A57U | 0.36 |
| A18G A57C | 0.49 |
| A18U C68A | 0.2 |
| A18G A21U | 0.33 |
| A18G A21G | 0.4 |
| A18G A21C | 0.4 |

| Variant | self-cleavage |
| --- | --- |
| G19A C29G | 0.24 |
| A18G A47U | 0.44 |
| A18G A47C | 0.12 |
| A18G A47G | 0.66 |
| A18U G36U | 0.19 |
| A18U A20G | 0.34 |
| A18U A20U | 0.25 |
| A18G U60C | 0.28 |
| A18G U60A | 0.38 |
| A18G U60G | 0.14 |
| A18G U74G | 1.21 |
| A18G U74C | 1.1 |
| A18G U74A | 0.95 |
| A18G G22C | 0.24 |
| A18G G22U | 0.22 |
| A18G G22A | 0.24 |
| G19A A28G | 0.2 |
| A18G U31C | 0.3 |
| A18G U31A | 0.41 |
| A18U U72C | 0.42 |
| A18U U72G | 0.5 |
| A18U U72A | 0.19 |
| A18G C29U | 0.42 |
| A18G C29A | 0.26 |

| Variant | self-cleavage |
| --- | --- |
| A18U G22U | 0.24 |
| A18U C29U | 0.17 |
| A18U C29A | 0.19 |
| A18G U49C | 0.29 |
| A18G U49A | 0.32 |
| A18G C79G | 0.73 |
| A18G C79U | 0.9 |
| A18G U41G | 0.42 |
| A18G U41C | 0.68 |
| A18G U41A | 0.26 |
| A18G G53U | 0.56 |
| A18G G53A | 0.9 |
| A18G U26C | 0.33 |
| A18G U26A | 0.48 |
| A18G C27U | 0.42 |
| A18G C27G | 0.41 |
| A18G U58G | 0.28 |
| A18G U58A | 0.21 |
| A18G U58C | 0.28 |
| G19A A57G | 0.26 |
| G19A A21U | 0.1 |
| A18U U74A | 0.62 |
| A18U U74C | 0.61 |
| A18G C50U | 0.63 |

| Variant | self-cleavage |
| --- | --- |
| A18G U72A | 0.35 |
| A18G U72G | 0.29 |
| A18G U72C | 0.68 |
| A18C U43G | 0.07 |
| A18C U43C | 0.21 |
| A18C U43A | 0.64 |
| A18U A28C | 0.15 |
| A18U A28U | 0.29 |
| A18U A28G | 0.26 |
| A18U U60A | 0.3 |
| A18U U60C | 0.22 |
| A18G G63A | 0.51 |
| A18G G63U | 1.02 |
| A18G G63C | 0.55 |
| A18G A28G | 0.33 |
| A18G A28C | 0.38 |
| A18G A28U | 0.5 |
| A18C U49G | 0.17 |
| A18C U49C | 0.29 |
| A18U A47U | 0.3 |
| A18U A47G | 0.37 |
| A18G C40U | 0.44 |
| A18G C40A | 0.14 |
| A18U C59A | 0.17 |

| Variant | self-cleavage |
| --- | --- |
| A18U C59G | 0.15 |
| A18U C59U | 0.23 |
| A18G A35G | 1.06 |
| A18G A35U | 0.27 |
| A18G A35C | 0.38 |
| A18G U25C | 0.26 |
| A18G U25G | 0.17 |
| A18G U25A | 0.38 |
| A18U G70U | 0.21 |
| A18U U25C | 0.26 |
| A18U U25G | 0.08 |
| A18U U25A | 0.19 |
| G19A A64G | 0.21 |
| A18C U74G | 0.31 |
| A18C U74C | 0.58 |
| A18G U76C | 0.58 |
| A18G U76A | 0.73 |
| A18U G24A | 0.36 |
| A18G G46U | 0.16 |
| A18G G46A | 0.35 |
| A18U U67C | 0.26 |
| A18U U67G | 0.19 |
| A18U U67A | 0.21 |
